Values joined by “and” are separate entries in the source; they are usually repeats but may differ in a detail not shown here. Equal values may be shown once.
Settings: Saccharolobus solfataricus (strain ATCC 35092 / DSM 1617 / JCM 11322 / P2), Thermal, DSC, Glycine 10 mM, transition: 3, reversible: yes, whole UniProt chain shown

B1: DNA/RNA-binding protein Alba 2 wild type, Q97ZF4 (protein)
chain: MTEKLNEIVVRKTKNVEDHVLDVIVLFNQGIDEVILKGTGREISKAVDVYNSLKDRLGDGVQLVNVQTGSEVRDRRRISYILLRLKRVY
unfolding enthalpy (calorimetric) (pH 3.2): 20.3 kcal/mol and 42.8 kcal/mol
unfolding enthalpy (van 't Hoff) (pH 3.2): 39.1 kcal/mol and 85.5 kcal/mol
Tm (pH 4.2): 116 °C
unfolding enthalpy (calorimetric) (pH 4.2): 47.8 kcal/mol
unfolding enthalpy (van 't Hoff) (pH 4.2): 93.5 kcal/mol
unfolding enthalpy (calorimetric) (pH 4.8): 37.8 kcal/mol and 47.3 kcal/mol
unfolding enthalpy (van 't Hoff) (pH 4.8): 75.5 kcal/mol and 92.7 kcal/mol
unfolding enthalpy (calorimetric) (pH 5.6): 44.8 kcal/mol and 56.9 kcal/mol
unfolding enthalpy (van 't Hoff) (pH 5.6): 95.5 kcal/mol and 105 kcal/mol
unfolding enthalpy (calorimetric) (pH 7.1): 27 kcal/mol and 44.9 kcal/mol
unfolding enthalpy (van 't Hoff) (pH 7.1): 172 kcal/mol and 84.7 kcal/mol

— FireProtDB (doi:10.1021/bi051266r)
